# Measurements reported in paper doi:10.1101/2021.07.07.451531 (bioRxiv, 2021).
# B1: hCD11bNb1 (VHH)
# VHH: QVQLVETGGGLVQAGGSLRLSCAASGNINSFNAMGWFRQAPGKQRELVAAITFGGRTNYADSVKGRFTISRDNTKGSVYLQMNSLKPEDTAVYYCAASENNLLTGVWHYWGRGTQVTVSS
# Experiments:
# biotinylated iC3b = assay: SPR
# [1] = biological target: αM subunit of the αMβ2 headpiece (human, UniProt P11215); assay: crystal structure
# [2] = biological target: recombinant human αI domain of αMβ2 (human, UniProt P11215); assay: SEC
# Sequence of recombinant human αI domain of αMβ2 (P11215 148-336): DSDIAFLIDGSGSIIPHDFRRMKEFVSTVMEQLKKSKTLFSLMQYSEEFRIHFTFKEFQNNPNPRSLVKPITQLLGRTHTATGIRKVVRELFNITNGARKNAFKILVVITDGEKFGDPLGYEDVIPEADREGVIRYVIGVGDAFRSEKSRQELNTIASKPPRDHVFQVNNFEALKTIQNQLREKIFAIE
# Sequence of αM subunit of the αMβ2 headpiece (P11215 17-770): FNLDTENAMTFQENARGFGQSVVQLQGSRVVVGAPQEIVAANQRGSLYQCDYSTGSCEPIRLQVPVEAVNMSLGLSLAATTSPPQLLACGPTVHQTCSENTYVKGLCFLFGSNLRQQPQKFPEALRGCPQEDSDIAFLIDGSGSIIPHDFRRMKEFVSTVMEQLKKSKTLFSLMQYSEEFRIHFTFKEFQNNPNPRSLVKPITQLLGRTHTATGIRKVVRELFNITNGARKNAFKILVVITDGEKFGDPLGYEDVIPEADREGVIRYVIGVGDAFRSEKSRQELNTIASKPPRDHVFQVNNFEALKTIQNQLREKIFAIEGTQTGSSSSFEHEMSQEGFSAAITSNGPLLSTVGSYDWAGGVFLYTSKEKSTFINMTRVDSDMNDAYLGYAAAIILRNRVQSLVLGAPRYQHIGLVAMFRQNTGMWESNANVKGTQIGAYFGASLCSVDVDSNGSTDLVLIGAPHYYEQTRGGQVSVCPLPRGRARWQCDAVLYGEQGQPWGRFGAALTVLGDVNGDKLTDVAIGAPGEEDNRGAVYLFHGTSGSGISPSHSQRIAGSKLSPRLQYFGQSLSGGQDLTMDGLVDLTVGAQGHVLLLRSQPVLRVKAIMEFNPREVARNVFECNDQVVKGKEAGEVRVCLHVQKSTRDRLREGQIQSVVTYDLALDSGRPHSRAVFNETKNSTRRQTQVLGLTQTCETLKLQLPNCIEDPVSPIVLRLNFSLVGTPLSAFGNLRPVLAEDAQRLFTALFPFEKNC
Molecule,Kd (biotinylated iC3b) [nM],binding result [1],binding result [2]
αMβ2 headpiece (from UniProt P05107 23-482) (complex),30,–,–
B1,–,binds,binds
